For experiment [1], the target named is T1, human IL-11 (human, UniProt P20809 22-199).
T1 sequence: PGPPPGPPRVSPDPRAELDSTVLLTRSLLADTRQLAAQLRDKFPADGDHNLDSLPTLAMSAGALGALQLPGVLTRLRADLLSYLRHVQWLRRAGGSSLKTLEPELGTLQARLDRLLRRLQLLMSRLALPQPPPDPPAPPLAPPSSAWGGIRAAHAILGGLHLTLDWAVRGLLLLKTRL
Briefly: cell-based or functional assay.

Experiment [2] deals with T2, murine IL-11 (mouse, UniProt P47873 22-199).
T2 sequence: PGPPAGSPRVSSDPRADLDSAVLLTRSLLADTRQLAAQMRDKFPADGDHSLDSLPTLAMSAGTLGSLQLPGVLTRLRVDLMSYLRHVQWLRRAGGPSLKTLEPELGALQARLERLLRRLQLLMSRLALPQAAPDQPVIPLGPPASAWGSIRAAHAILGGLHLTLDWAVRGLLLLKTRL
The experiment is described as follows: cell-based or functional assay.

Experiment [3] concerns the target T1, human IL-11. Briefly: SPR, antibody captured, IL-11 as analyte. The protocol: (§1) Antibodies were captured via anti-mouse Fc IgGs (“Mouse antibody capture kit, Order No. BR100383, Cytiva) covalently amine coupled to a Series S CM5 sensor chip (Cytiva). The amine coupling was carried out according to the manufacturer's instructions using 1-ethyl-3-(3-dimethylaminopropyl) carbodiimide hydrochloride (EDC), N-hydroxysuccinimide (NHS) and ethanolamine HCl, pH 8.5 (“Amine Coupling Kit” BR-1000-50, Cytiva.). Human IL-11 (Invigate, e.g., lot #C121021-19), and murine IL-11 (Invigate, e.g., lot #C210819-09) were used as analytes. […] Based on that experiment an IL-11 concentration range was chosen to optimally determine kinetics and affinity of anti-IL-11 antibodies in multicycle kinetics mode. The sensor surface was regenerated with glycine pH 1.7 after each antigen injection. Obtained sensorgrams were double referenced (subtraction of reference flow cell signal and buffer injection) and were fitted to a 1:1 Langmuir binding model to derive kinetic data using the Biacore T200 Evaluation software or the Biacore Insight software.
(§2) For the 2nd round of germlining, single reversions were then combined on DNA level, expressed and purified as described in Example 15, and tested by SPR as described in Example 16.

Experiment [4] addresses T2, murine IL-11. Briefly: SPR, antibody captured, IL-11 as analyte. The method, then:
as §1, §2
(In general: In SPR one partner is held on a chip, and binding of the other changes the refractive index at the surface.)

Experiment [5] addresses T3, human IL-11 (human, UniProt P20809 22-199).
T3 sequence: T1 sequence
Briefly: cell-based or functional assay. This is another data set of the same source.

The target of experiment [6] is T4, murine IL-11 (mouse, UniProt P47873 22-199).
T4 sequence: T2 sequence
The experiment is described as follows: cell-based or functional assay. This is another data set of the same source.

Experiment [7] has as its target T3, human IL-11. The experiment is described as follows: SPR, antibody captured, IL-11 as analyte.
Experiment [8] concerns the target T4, murine IL-11. Briefly: SPR, antibody captured, IL-11 as analyte.
The target in another experiment is T5, cynomolgus IL-11 (cynomolgus, UniProt P20808 22-199).
T5 construct: Invigate, lot #C290621-19; also called cIL11; cynoL-11
T5 sequence: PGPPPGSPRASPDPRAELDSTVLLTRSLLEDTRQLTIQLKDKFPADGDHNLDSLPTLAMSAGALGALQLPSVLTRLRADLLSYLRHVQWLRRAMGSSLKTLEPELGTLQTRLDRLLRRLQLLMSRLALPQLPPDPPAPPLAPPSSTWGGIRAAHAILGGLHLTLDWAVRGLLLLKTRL
The experiment is described as follows: SPR, antibody captured, IL-11 as analyte.

The next experiment has as its target T6, rat IL-11 (rat, UniProt Q99MF5 22-199).
T6 construct: Invigate, e.g. lot #C301019-19; also called rIL11
T6 sequence: T2 sequence with S50N, L84F, G94A, V137A, I138V
Briefly: SPR, antibody captured, IL-11 as analyte.

Changes are numbered by the printed parent chain. Like-named read-outs stand apart in the source and are kept apart here.

The Kd is a measure of binding affinity in units of concentration. The low end stands for a tighter complex, the high end for a looser complex.

B1: TPP-21150 (antibody, V domains shown)
VH: EVQLLESGGGLVQPGGSLRLSCAASGFTFSSYGMHWVRQAPGKGLEWVSVISYDGSYKYYADSVKGRFTISRDNSKNTLYLQMNSLRAEDTAVYYCAAGVPDYWGQGTLVTVSS
VL: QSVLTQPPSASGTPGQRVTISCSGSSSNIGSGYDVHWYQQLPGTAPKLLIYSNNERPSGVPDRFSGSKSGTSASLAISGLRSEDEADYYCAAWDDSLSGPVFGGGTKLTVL
As for B1, the “Efficacy (%), RGA” value in the experiment with human IL-11 [1] was 46.9%; in the experiment with murine IL-11 [2], 92.2%. In addition, the “IC50, RGA” value in the experiment with human IL-11 [1] was 12 nM; with murine IL-11 [2], 1.6 nM. Further, the results for the Kd in the experiment with human IL-11 [3] and in the experiment with murine IL-11 [4] were 5.6 nM and 1.4 nM, respectively.

B2: TPP-27159 (antibody, human IgG1, lambda, V domains shown)
VH: B1 VH with S49A
VL: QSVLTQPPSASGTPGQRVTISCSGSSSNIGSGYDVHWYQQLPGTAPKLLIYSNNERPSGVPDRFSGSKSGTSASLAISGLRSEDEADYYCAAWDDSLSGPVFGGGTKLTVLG
notes: hIgG1, Lambda
Consider B2, for which the “Efficacy (%), RGA” value with human IL-11 [1] worked out at 43.2%; with murine IL-11 [2], 82.4%. The results for the “IC50, RGA” value with human IL-11 [1] and with murine IL-11 [2] were 19 nM and 1.9 nM, respectively. In addition, the Kd with human IL-11 [3] worked out at 5.4 nM; in the experiment with murine IL-11 [4], 1.1 nM.

B3: TPP-27162 (antibody, V domains shown)
VH: B1 VH with S49A
VL: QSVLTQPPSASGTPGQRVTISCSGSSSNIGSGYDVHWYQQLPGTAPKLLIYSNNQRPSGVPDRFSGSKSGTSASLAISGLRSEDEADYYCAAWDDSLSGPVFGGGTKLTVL
For B3, the “Efficacy (%), RGA” value worked out at 36% in the experiment with human IL-11 [1] and 77.6% with murine IL-11 [2]. In addition, the “IC50, RGA” value with human IL-11 [1] came to 91 nM; with murine IL-11 [2], 3.3 nM. Besides, the Kd with human IL-11 [3] is 7.4 nM; in the experiment with murine IL-11 [4] it was 3.2 nM.

B4: TPP-21158 (antibody, V domains shown)
VH: B1 VH with S49A, A98R
VL: QSVLTQPPSASGTPGQRVTISCTGSSSNIGAGYDVHWYQQLPGTAPKLLIYSNNERPSGVPDRFSGSKSGTSASLAISGLRSEDEADYYCAAWDDSLNGPVFGGGTKLTVL
In the case of B4, the “Efficacy (%), RGA” value in the experiment with human IL-11 [1] stood at 19.4%; with murine IL-11 [2], 73.2%. For the same molecule, in the experiment with murine IL-11 [2], the “IC50, RGA” value was 2.4 nM. Further, the Kd in the experiment with human IL-11 [3] was determined as 47 nM; in the experiment with murine IL-11 [4], 13 nM.

B5: TPP-27158 (antibody, V domains shown)
VH: B1 VH with S49A
VL: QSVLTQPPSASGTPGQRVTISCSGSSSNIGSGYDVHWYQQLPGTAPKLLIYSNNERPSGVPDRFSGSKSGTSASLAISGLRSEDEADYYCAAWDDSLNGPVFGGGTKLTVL
With B5, the “Efficacy (%), RGA” value in the experiment with human IL-11 [1] was determined as 55.8%; with murine IL-11 [2] it was 89.9%. The “IC50, RGA” value with human IL-11 [1] stood at 20 nM; in the experiment with murine IL-11 [2], 1.4 nM. Moreover, the Kd with human IL-11 [3] stood at 5.9 nM; with murine IL-11 [4], 0.4 nM.

B6: TPP-21153 (antibody, V domains shown)
VH: B1 VH
VL: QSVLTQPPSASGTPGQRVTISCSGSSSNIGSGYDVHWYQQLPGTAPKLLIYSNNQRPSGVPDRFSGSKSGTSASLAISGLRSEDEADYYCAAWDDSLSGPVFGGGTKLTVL
For B6, the “Efficacy (%), RGA” value amounted to 34% with human IL-11 [1] and 81.2% with murine IL-11 [2]. In addition, the “IC50, RGA” value amounted to 26 nM in the experiment with human IL-11 [1] and 3.4 nM with murine IL-11 [2]. Besides, the Kd stood at 10 nM with human IL-11 [3] and 3.6 nM with murine IL-11 [4].

B7: TPP-21157 (antibody, V domains shown)
VH: B1 VH
VL: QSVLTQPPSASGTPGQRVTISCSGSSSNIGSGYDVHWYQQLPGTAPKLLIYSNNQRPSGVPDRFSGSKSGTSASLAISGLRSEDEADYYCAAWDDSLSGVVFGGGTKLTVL
With B7, the entries for the “Efficacy (%), RGA” value in the experiment with human IL-11 [1] and in the experiment with murine IL-11 [2] were 13.4% and 59.2%, respectively. In addition, in the experiment with murine IL-11 [2], the “IC50, RGA” value amounted to 44 nM. Moreover, the values for the Kd in the experiment with human IL-11 [3] and with murine IL-11 [4] were 13 nM and 73 nM, respectively.

B8: TPP-29404 (antibody, human IgG1, V domains shown)
VH: B1 VH with M34G, S49A, V50L
VL: B4 VL with T23S, A31S, G32Y, D95S, N98S
Consider B8, for which the “RGA Efficacy (%)” value with human IL-11 [5] is 71.8%; with murine IL-11 [6], 91.8%. Moreover, the figures for the “RGA IC50” value with human IL-11 [5] and in the experiment with murine IL-11 [6] were 0.72 nM and 0.19 nM, respectively. In addition, the Kd with human IL-11 [7] turned out to be 0.2 nM; with murine IL-11 [8] it was 0.091 nM; with cynomolgus IL-11, 0.14 nM; with rat IL-11, 0.067 nM.

B9: TPP-27155 (antibody, V domains shown)
VH: B1 VH
VL: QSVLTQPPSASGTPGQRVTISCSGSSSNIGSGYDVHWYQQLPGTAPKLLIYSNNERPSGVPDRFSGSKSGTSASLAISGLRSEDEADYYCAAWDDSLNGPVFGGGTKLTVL
In the case of B9, the “Efficacy (%), RGA” value was found to be 56.5% with human IL-11 [1] and 94.3% with murine IL-11 [2]. In addition, the “IC50, RGA” value came out at 20 nM with human IL-11 [1] and 1.1 nM with murine IL-11 [2]. For the same molecule, the Kd with human IL-11 [3] came out at 5.8 nM; with murine IL-11 [4], 0.65 nM.

B10: TPP-27154 (antibody, V domains shown)
VH: B1 VH
VL: B4 VL with N98S
As for B10, the “Efficacy (%), RGA” value with human IL-11 [1] worked out at 58.7%; with murine IL-11 [2] it was 92.9%. Further, the results for the “IC50, RGA” value with human IL-11 [1] and with murine IL-11 [2] were 24 nM and 1.8 nM, respectively. Further, the figures for the Kd in the experiment with human IL-11 [3] and with murine IL-11 [4] were 5.4 nM and 1.3 nM, respectively.

B11: TPP-27163 (antibody, V domains shown)
VH: B1 VH with S49A
VL: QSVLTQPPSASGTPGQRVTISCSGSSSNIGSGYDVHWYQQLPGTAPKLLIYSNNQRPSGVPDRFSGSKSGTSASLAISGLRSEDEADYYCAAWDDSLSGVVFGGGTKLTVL
With B11, the “Efficacy (%), RGA” value with human IL-11 [1] was determined as 2.9%; with murine IL-11 [2], 52.3%. In addition, in the experiment with murine IL-11 [2], the “IC50, RGA” value was 52 nM. Besides, the dissociation constant Kd amounted to 12 nM in the experiment with human IL-11 [3] and 28 nM with murine IL-11 [4].

B12: TPP-27156 (antibody, V domains shown)
VH: B1 VH with S49A
VL: B4 VL
B12: the figures for the “Efficacy (%), RGA” value with human IL-11 [1] and with murine IL-11 [2] were 50.4% and 90.6%, respectively. Further, the “IC50, RGA” value in the experiment with human IL-11 [1] turned out to be 15 nM; with murine IL-11 [2], 1.2 nM. For the same molecule, the Kd came out at 6.6 nM in the experiment with human IL-11 [3] and 0.45 nM in the experiment with murine IL-11 [4].

B13: TPP-27160 (antibody, V domains shown)
VH: B1 VH with S49A
VL: B4 VL with T23S, A31S, S52D, N98S
Regarding B13, the results for the “Efficacy (%), RGA” value with human IL-11 [1] and with murine IL-11 [2] were -2.8% and 63.8%, respectively. For the same molecule, the “IC50, RGA” value with murine IL-11 [2] stood at 10 nM. Further, the Kd with human IL-11 [3] was 180 nM; with murine IL-11 [4], 56 nM.

B14: TPP-27157 (antibody, V domains shown)
VH: B1 VH with S49A
VL: B4 VL with N98S
In the case of B14, the “Efficacy (%), RGA” value in the experiment with human IL-11 [1] was 51.2%; with murine IL-11 [2] it was 86.4%. For the same molecule, the “IC50, RGA” value with human IL-11 [1] was found to be 13 nM; with murine IL-11 [2] it was 1.4 nM. For the same molecule, the Kd with human IL-11 [3] worked out at 5.1 nM; with murine IL-11 [4] it was 1.1 nM.
